Measurements from US20180016620A1 (KITE PHARMA, published 2018).
No end group written: not given here.

What was measured:
FL_peptide_OVA = biological target: T1, FL_peptide_OVA (also: conjugated to ovalbumin, site and chemistry not given here); assay: ELISA as for the peptides of the figure; y axis 0 to 7000000 without unit
T1 construct: not shown: the ovalbumin carrier protein
T1 peptide: GSTSGSGKPGSGEGSTKG
Protocol: (§1) The antibodies (i.e., antigen binding molecules) were epitope mapped via ELISA using the full length peptide, […] (SEQ ID NO:1), and variants truncated on either the N- or C-terminus and containing either a biotin moiety on the N-terminus, or a lysine residue with a biotin moiety on the C-terminus. The antibodies were captured in 96-well plate format using plates pre-coated with Protein G (Pierce). The plates were washed 6× in PBST buffer followed by incubation with target peptides. An additional 6× wash was performed with PBST and the antibodies were further incubated with streptavidin-HRP. Upon a final 6× wash in PBST, signal was detected and quantified via enhanced chemiluminescense kit (ECL, from GE Healthcare) and a Varioskan Flash plate reader (Thermo Fisher).

[1] = biological target: T2, SEQ ID NO: 485 GSTSGSGKPGSGEGST (also: biotin on N-terminus or on added C-terminal Lys, which not given here); assay: epitope mapping ELISA: antibody captured on Protein G plate, biotinylated peptide, streptavidin-HRP, chemiluminescence
T2 peptide: GSTSGSGKPGSGEGST
Protocol: as §1

[2] = biological target: T3, SEQ ID NO: 486 GSTSGSGKPGSGEG (also: biotin on N-terminus or on added C-terminal Lys, which not given here); assay: as above
T3 peptide: GSTSGSGKPGSGEG
Protocol: as §1

[3] = biological target: T4, SEQ ID NO: 496 GSTSGSGKPGSGE (also: biotin on N-terminus or on added C-terminal Lys, which not given here); assay: as above
T4 peptide: GSTSGSGKPGSGE
Protocol: as §1

[4] = biological target: T5, SEQ ID NO: 489 GSGKPGSGEGSTKG (also: biotin on N-terminus or on added C-terminal Lys, which not given here); assay: as above
T5 peptide: GSGKPGSGEGSTKG
Protocol: as §1

[5] = biological target: T6, SEQ ID NO: 497 SGKPGSGEGSTKG (also: biotin on N-terminus or on added C-terminal Lys, which not given here); assay: as above
T6 peptide: SGKPGSGEGSTKG
Protocol: as §1

[6] = biological target: T7, SEQ ID NO: 490 GKPGSGEGSTKG (also: biotin on N-terminus or on added C-terminal Lys, which not given here); assay: as above
T7 peptide: GKPGSGEGSTKG
Protocol: as §1

[7] = biological target: T8, SEQ ID NO: 498 KPGSGEGSTKG (also: biotin on N-terminus or on added C-terminal Lys, which not given here); assay: as above
T8 peptide: KPGSGEGSTKG
Protocol: as §1

[8] = biological target: T9, GSTSGSGKPGSGEGST SEQ ID NO: 485 (also: biotin on N-terminus or on added C-terminal Lys, which not given here); assay: ELISA: antibody captured on Protein G plate, biotinylated peptide, streptavidin-HRP, chemiluminescence; y axis 0 to 7000000 without unit
T9 construct: also called 18 mer lacking its 2 C-terminal residues
T9 peptide: GSTSGSGKPGSGEGST
Protocol: as §1

[9] = biological target: T10, GSTSGSGKPGSGEG SEQ ID NO: 486 (also: biotin on N-terminus or on added C-terminal Lys, which not given here); assay: as above
T10 construct: also called 18 mer lacking its 4 C-terminal residues
T10 peptide: GSTSGSGKPGSGEG
Protocol: as §1

[10] = biological target: T11, GSGKPGSGEGSTKG SEQ ID NO: 489 (also: biotin on N-terminus or on added C-terminal Lys, which not given here); assay: as above
T11 construct: also called 18 mer lacking its 4 N-terminal residues
T11 peptide: GSGKPGSGEGSTKG
Protocol: as §1

[11] = biological target: T12, GKPGSGEGSTKG SEQ ID NO: 490 (also: biotin on N-terminus or on added C-terminal Lys, which not given here); assay: as above
T12 construct: also called 18 mer lacking its 6 N-terminal residues
T12 peptide: GKPGSGEGSTKG
Protocol: as §1

[12] = biological target: T13, full length 18 mer linker peptide GSTSGSGKPGSGEGSTKG (also: biotin on N-terminus or on added C-terminal Lys, which not given here); assay: as above
T13 construct: Synthetic linker peptide; also called full-length linker peptide; Whitlow linker
T13 peptide: GSTSGSGKPGSGEGSTKG
Protocol: as §1

Measured: binding result

B1: Clone 16 anti-linker antibody (antibody, V domains shown)
VH: QSLEESGGRLVTPGTPLTLTCTVSGSDISSYHMGWVRQAPGKGLEYIGIIVSSGSAYYATWAKGRFTISRTSTTVDLKITSPTTEDSATYFCARNQYSGYGFSFWGPGTLVTVSS
VL: AVVLTQTPSPVSTAVGGTVTINCQSSHSVYYGDWLAWYQQKPGQPPKLLIYRASNLASGVPSRFKGSGSGTQFTLTISGVQCDDAATYYCLGGYDDDGETAFGGGTEVVVKD
notes: Rabbit monoclonal from a hybridoma; also called Clone 16-6; 16-6
binds: FL_peptide_OVA | [1] | [2] | [3] | [4] | [5] | [6] | [7] | [8] | [9] | [10] | [11] | [12]

B2: Clone 8 anti-linker antibody (antibody, V domains shown)
VH: QSVEESGGRLVTPGTPLTLTCTASGFTISNLAIIWVRQAPGKGLEYIGDIDGRGDIYCATWAKGRFTISKTSTTLDLRFTSPTTEDTATYFCAVDGDGSGWGDFNFWGPGTLVTVSS
VL: AYDMTQTPASVEVAVGGTVSIKCQASQSISTALAWYQQKPGQPPKLLIYRASTLASGVSSRFKGSGSGTQFTLTISGVECDDAATYYCQQGWSTVNVDNVFGGGTEVVVRD
notes: Rabbit monoclonal from a hybridoma; also called Clone 8-4; 8-4
binds: FL_peptide_OVA | [1] | [2] | [3] | [4] | [5] | [6] | [8] | [9] | [10] | [12]
